The values below are quoted from earlier work in article PMC4317646.

This data set deals with ADP-G-actin (Saccharomyces cerevisiae) (UniProt P60010).

Sequence of C-Srv2 C-terminal half (P17555 253-526): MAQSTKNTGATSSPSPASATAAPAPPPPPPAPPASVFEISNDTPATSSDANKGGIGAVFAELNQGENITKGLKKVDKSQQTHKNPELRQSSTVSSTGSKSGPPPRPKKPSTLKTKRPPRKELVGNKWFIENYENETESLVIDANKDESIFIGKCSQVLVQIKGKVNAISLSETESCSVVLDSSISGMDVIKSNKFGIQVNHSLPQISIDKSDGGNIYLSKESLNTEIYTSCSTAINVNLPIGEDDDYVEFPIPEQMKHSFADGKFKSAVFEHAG

In the case of “C-Srv2 C-terminal half (from UniProt P17555)”, the Kd – broadly, the free concentration of one partner at which half of the binding sites on the other are occupied at equilibrium, for simple one-to-one binding – was 18 nM.
